Measured values from the Human Domainome abundance scans (Beltran et al. 2025).

B1: Chromodomain-helicase-DNA-binding protein 4, residues 623 to 675; numbered along this chain, Q14839 (parent)
chain: MIHRILNHSVDKKGHVHYLIKWRDLPYDQASWESEDVEIQDYDLFKQSYWNHR

Variants of: B1
Assay: abundance fitness (aPCA) (normalised: wild type 0, dead -1); higher = more abundant; growth selection in yeast, the domain comes from the species named
Settings: Homo sapiens

Abundance fitness of substitutions, site by site:
D11: T -0.518, I -0.812, V -0.951, C -0.403, S -0.305, Y -0.792, N -0.201, W -0.694, L -0.875, Q -0.928, M -1.09, R -0.762, K -1.03, G -0.597, A -0.679, E -0.499, P -0.913
V16: Y -0.016, C -0.22, L -0.11, I -0.059, M -0.053, A -0.516, Q -0.549, T -0.059, W -0.715, E -0.545, P -0.59, D -0.611, F -0.382, G -0.757, S -0.745, R -0.309, K -0.088, H -0.288
N7: Y -0.449, L -0.438, G -0.356, A -0.068, F -0.568, E -0.317, Q -0.101, V -0.724, P -0.884, T -0.162, M -0.529, R -0.263, W -0.586, C -0.45, K -0.07, H -0.26, D 0.013, S -0.112
R23: C -0.294, E -0.279, D -0.591, A -0.207
L19: C -0.924, A -0.892, Y -0.282, V -0.814, P -0.74, S -0.703, N -0.262, G -0.604, W -0.866, H -0.814, D -0.71, F -0.518, I -0.772, T -0.775
G14: M -1.05, P -0.714, F -0.716, W -0.726, S -0.768, Q -0.714, I -0.656, H -0.86, A -0.919, T -1.08, E -1.12, Y -0.634, N -0.451, D -0.727, K -0.404, C -0.785, R -0.761
K13: W -0.492, E -0.066, D 0.098, C -0.267, T -0.344, Y -0.214, P -0.828, Q -0.133, I -0.588, F -0.079, M -0.162, A -0.25, G -0.335, H -0.062, R -0.196, N -0.123, S -0.098, V -0.263, L -0.36
K12: M 0, S -0.074, G -0.078, P -0.083, Y -0.184, L -0.239, N -0.073, A -0.01, Q -0.084, D -0.103, R -0.246, V -0.171, H 0.01, W -0.19, I -0.136, E -0.158, F -0.514
W22: L -0.795, E -0.823, M -0.447, Q -0.796, K -0.891, S -0.806, F -0.825, V -0.55, A -0.889, H -0.733, P -0.959, T -0.871, G -0.88, C -0.793, R -0.855, N -1.13, I -0.797
H17: G -0.756, I -0.068, W -0.302, F -0.312, V -0.485, Q -0.098, M -0.034, Y -0.04, S -0.155, N -0.052, P -0.91, K 0.094, A -0.252, R -0.174, D -0.43, L -0.292, E -0.242, T 0.115, C 0.031
L6: C -0.333, Q -0.6, T -0.75, I -0.046, D -0.907, Y -0.735, M -0.542, S -0.824, N -0.804, F -0.73, K -0.918, P -0.695, R -0.805, W -1.07, V -0.231, A -0.79, H -0.76
V10: D -0.682, Q -0.377, Y 0.115, P -0.571, C -0.562, R -0.262, L -0.332, S -0.47, K -0.144, I -0.286, W -0.533, H -0.557, M -0.495, F -0.207, G -0.895, N -0.714, T -0.093, E -0.447
S9: M -0.105, C -0.062, V -0.407, K 0.139, I -0.021, P -0.766, L -0.158, G -0.553, T -0.068, A -0.398, Q -0.095, N -0.484, R 0.156, Y -0.177, E -0.112, H -0.066, F -0.127, W -0.198, D -0.341
H15: C -0.171, E -0.123, Q -0.021, Y -0.409, N 0.081, M -0.134, K 0.205, F -0.344, A -0.126, V -0.122, D -0.511, L -0.171, S -0.023, I 0.029, W -0.631, R 0.057
H8: A -0.857, N -0.75, V -0.918, P -0.831, T -0.791, G -0.832, W -0.863, R -0.634, Q -0.813, M -0.847, E -0.69, D -0.92, S -0.713, Y -0.803, L -0.806, K -0.956, F -0.875, I -0.645, C -0.647
Y18: L -0.86, D -0.963, G -0.798, P -0.833, M -0.957, R -1.05, W -0.787, H -0.736, K -0.838, V -0.753, F -0.43, S -0.681, N -0.754, A -0.688, Q -0.962, C -0.59
I20: W -0.633, E -0.842, S -0.778, Y -0.825, N -0.838, T -0.885, M -0.612, V -0.276, R -0.722, F -0.946, Q -0.874, G -0.791, L -0.622, A -0.921, K -0.878, C -0.686
R4: A -0.535, S -0.117, Q -0.233, E 0.058, L -0.221, M -0.136, W -0.263, V -0.371, D -0.479, N -0.331, Y -0.102, C -0.08, G -0.481, K 0.145, P -0.788, H -0.108, T -0.047
I5: Q -0.591, V -0.842, P -0.522, F -0.827, S -0.823, G -0.933, Y -1.02, R -0.81, W -0.767, D -0.999, H -0.721, C -1.07, M -0.746, N -1.01, A -0.778, T -0.914, L -0.497
H3: W -0.245, V -0.629, Y -0.16
K21: G -0.656, W -0.201, P -0.855, F -0.537, S -0.406, C -0.424, T -0.949, H -0.008, I -0.581, V -0.463, Q -0.106, N -0.561, Y -0.349, D -0.818, A -0.01, L -0.204
